Test results from US20240376195A1 (BEIGENE, published 2024).
Where a chain is given by its changes, count along the chain named. Blank lines part the entries; values can stand above or below the binder they belong to.

Assays:
his-tagged human NKp30 [1] = biological target: T1, his-tagged human NKp30 (human, UniProt O14931 19-135); test: SPR (BIAcore T-200), antibody captured by anti-mouse IgG, his-tagged human NKp30 as analyte
T1 construct: Analyte of the SPR assay; not shown: his tag
T1 sequence: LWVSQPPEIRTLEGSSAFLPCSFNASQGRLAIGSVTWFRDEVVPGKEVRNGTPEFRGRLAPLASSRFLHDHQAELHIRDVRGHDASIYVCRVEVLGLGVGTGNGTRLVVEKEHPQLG
Description: The NKp30 antibodies with high binding activities in ELISA and FACS, as well as with potent functional activities in the cell-based assays (described in Example 1 above) were characterized for their binding kinetics by SPR assays using BIAcore™ T-200 (GE Life Sciences). Briefly, an anti-mouse IgG antibody was immobilized on an activated CM5 biosensor chip (Cat. No.: BR100530, GE Life Sciences). Purified NKp30 murine antibodies were flowed over the chip surface and captured by the anti-mouse IgG antibody. Then a serial dilution (0.098 nM to 25 nM) of his-tagged human NKp30 was flowed over the chip surface and changes in surface plasmon resonance signals were analyzed to calculate the association rates (kₒₙ) and dissociation rates (koff) by using the one-to-one Langmuir binding model (BIA Evaluation Software, GE Life Sciences). The equilibrium dissociation constant (KD) was calculated as the ratio koff/kₒₙ.

[2] = biological target: T2, NKp30 (form in the assay not stated) (UniProt O14931 19-135, limits assumed); test: flow cytometry, y axis NKp30 (MFI); cells not named in the legend or on the sheet
T2 construct: It is inferred from BGA1831 being an anti-NKp30 antibody
T2 sequence (looked up): T1 sequence

NKp30-mIgG2a = biological target: T3, NKp30-mIgG2a (human; mouse, UniProt O14931 19-135); test: flow cytometry blocking assay; binding of NKp30-mIgG2a to B7-H6 on HCT116/B7-H6 cells in the presence of serially diluted antibody
T3 construct: also called soluble NKp30; NKp30-mIgG2a fusion protein; not shown: Fc domain of mouse IgG2a, fused to the C-terminus of the NKp30 ECD
T3 sequence: T1 sequence
Description: A schematic diagram showing the inhibition of NKp30/B7-H6 interactions by anti-NKp30 Ab. The binding of soluble NKp30 (NKp30-mIgG2a fusion protein) to B7-H6-expressing HCT116 cells (HCT116/B7-H6) was determined by flow cytometry. The blockade of NKp30/B7-H6 interaction was quantitatively measured by adding serially diluted BGA1833/IgG1. Results are shown in mean±SD of duplicates.
(Joyce et al., 2011 PNAS 108:6223-6228). […] In addition, these two residues were previously determined to be important for NKp30/B7-H6 interaction in a structural study (Li et al., J Exp Med. 2011 208:703-714). […] For this assay, a B7-H6 stably transduced cell line HCT116/B7-H6 was incubated with NKp30-mIgG2a in the presence of serially diluted BGA1833, followed by detection with […].

his-tagged human NKp30 [3] = biological target: T1, his-tagged human NKp30; test: SPR, antibody captured on anti-human Fc surface; NKp30 analyte not named in Example 4
Description: Further engineered versions of humanized monoclonal antibodies were derived from the mutation process described as above and characterized in detail. […] For affinity determination, antibodies were captured by anti-human Fc surface, and used in the affinity assay based on surface plasmon resonance (SPR) technology. All the humanization antibodies shown above were also confirmed for functional activities on primary human immune cells isolated from healthy donors (described in Example 7 below).

[4] = biological target: T4, full-length human NKp30 on NK92MI cells (human, UniProt O14931 19-201); test: flow cytometry on live NK92MI cells over-expressing human NKp30, goat anti-human IgG detection
T4 construct: Full-length human NKp30 over-expressed on NK92MI cells; also called huNKp30; native NKp30
T4 sequence: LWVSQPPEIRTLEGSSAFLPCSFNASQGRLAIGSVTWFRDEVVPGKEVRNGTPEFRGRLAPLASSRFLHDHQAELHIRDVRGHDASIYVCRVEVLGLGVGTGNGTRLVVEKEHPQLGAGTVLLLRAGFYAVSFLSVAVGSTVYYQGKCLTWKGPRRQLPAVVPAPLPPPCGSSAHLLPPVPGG
Description: To evaluate the binding activity of anti-NKp30 antibodies to native NKp30 on living cells, NK92MI cells were transfected to over-express human NKp30. Live NK92mi/NKp30 expressing cells were seeded in 96-well plates and were incubated with a serial dilution of anti-NKp30 antibodies. Goat anti-Human IgG was used as secondary antibody to detect antibody binding to the cell surface. EC₅₀ values for dose-dependent binding to human native NKp30 were determined by fitting the dose-response data to the four-parameter logistic model with GraphPad Prism™.

B3: BGA1833/IgG1 (antibody)
heavy: not shown
light: QIQLTQSPSSLSASVGDRVTITCKASQDVSTAVAWYQQKPGKAPKLLIYAASYRHIGVPSRFSGSGSGTDFTLTISSLQPEDFATYYCQQHYSNPFTFGGGTKVEIKRTVAAPSVFIFPPSDEQLKSGTASVVCLLNNFYPREAKVQWKVDNALQSGNSQESVTEQDSKDSTYSLSSTLTLSKADYEKHKVYACEVTHQGLSSPVTKSFNRGEC
notes: BGA1833 with wild-type human IgG1 heavy chain; also called BGA1833 with wt IgG1
IC50 (NKp30-mIgG2a): 0.144 µg/mL

B4: BGA1832 (antibody, human IgG1, kappa, V domains shown)
VH: QVQLVQSGAEVKKPGASVKVSCKASGYTFTSSYMHWVRQAPGQGLEWMGEIHPNRDNTNYNEKFKGRVTMTVDTSTSTVYMELSSLRSEDTAVYYCARSYYDYGGAYFDAWGQGTLVTVSS
VL: DIQLTQSPSSLSASVGDRVTITCKASQDVSTAVAWYQQKPGKAPKLLIYAASYRHIGVPSRFSGSGSGTDFTLTISSLQPEDFATYYCQQHYSNPFTFGGGTKVEIKR
Kd (his-tagged human NKp30 [3]): 0.213 nM | koff (his-tagged human NKp30 [3]): 0.000331 s⁻¹ | kon (his-tagged human NKp30 [3]): 1.55e+06 M⁻¹ s⁻¹

B5: BGA1831 (antibody, human IgG1, kappa, V domains shown)
VH: B4 VH with E10V, K12V, Y33W, V37A, M48I, V68A, M70L, V79A, A110S
VL: B4 VL with D1Q, Q3V, A43S, L73F
notes: also called humanized anti-NKp30 Ab BGA1831
Kd (his-tagged human NKp30 [3]): 0.198 nM | koff (his-tagged human NKp30 [3]): 0.000377 s⁻¹ | kon (his-tagged human NKp30 [3]): 1.91e+06 M⁻¹ s⁻¹ | EC50 [4]: 1.26 nM

Second part, the binder after the results:

Kd (his-tagged human NKp30 [1]): 0.132 nM | koff (his-tagged human NKp30 [1]): 0.00021 s⁻¹ | kon (his-tagged human NKp30 [1]): 1.59e+06 M⁻¹ s⁻¹ | EC50 [2]: 0.263 µg/mL | IC50 (NKp30-mIgG2a): 0.169 µg/mL
B1: mu183 (antibody, V domains shown)
VH: QVQLQQPGSVLVRPGASVKLSCKASGYTFTSSWMHWAKQRPGQGLEWIGEIHPNRDNTNYNEKFKGKATLTVDTSSSTAYVDLSSLTSEDSAVYYCARSYYDYGGAYFDSWGQGTTLTVSS
VL: QIVLTQSHKFMSTSVGDRVSITCKASQDVSTAVAWYQQKPGQSPKLLIYAASYRHIGVPDRFTGSGSGTDFTFTISSVQAEDLAVYYCQQHYSNPFTFGSGTKLEIK
notes: Murine hybridoma antibody, purified on Protein A; also called murine anti-NKp30 antibody mu183

Kd (his-tagged human NKp30 [3]): 0.143 nM | koff (his-tagged human NKp30 [3]): 0.000318 s⁻¹ | kon (his-tagged human NKp30 [3]): 2.22e+06 M⁻¹ s⁻¹ | EC50 [4]: 1.55 nM
B2: ch183 (antibody, V domains shown)
VH: B1 VH
VL: B1 VL
notes: not shown: human immunoglobulin kappa constant region
